For assay [1], the target named is active human MMP-9 enzyme active domain (Homo sapiens, UniProt P14780). Kind of assay: Size exclusion chromatography binding to active hMMP-9(cat)_His6. Set-up: an enzyme active domain (Phe107-Pro449) and a His tag; made in house; host or cells: FreeStyle 293F. The settings on record: 25 μM enzyme, 75 μM inhibitor. The protocol:
(§1) With M91005 and M91011 prepared in (1-2), active hMMP-9(cat)_His6 prepared in (2-1-4), and hMMP-9(cat)_E402Q_His6 prepared in (11-3), the binding activity was evaluated by size exclusion chromatography. 25 μM active hMMP-9(cat)_His6 or hMMP-9(cat)_E402Q_His6 and 75 μM active MMP-9-binding peptide or hTIMP-1 (in-house preparation) were mixed, and reacted at 4° C. for 1 hour. After the reaction, 10 μl of the reaction solution was analyzed by size exclusion chromatography. The chromatographic conditions were as follows.
(§2) Detection: Absorbance (280 nm)
(§3) When only active hMMP-9(cat)_His6 was analyzed, the peak of active hMMP-9(cat)_His6 was detected at a retention time of 7.0 minutes (FIG. 53(A)). When a mixture reaction solution of active hMMP-9(cat)_His6 and hTIMP-1 or active MMP-9-binding peptides M91005 or M91011 was analyzed, the retention time of the peak of active hMMP-9(cat)_His6 was shifted to the high molecular weight side (FIG. 53(A)). […] When only human MMP-9(cat)_E402Q_His6 was analyzed, the peak of hMMP-9(cat)_E402Q_His6 was detected at a retention time of 7.1 minutes (FIG. 53(B)). When a mixed reaction solution of human MMP-9(cat)_E402Q_His6 and hTIMP-1 was analyzed, the retention time of the peak of hMMP-9(cat)_E402Q_His6 was shifted to the high molecular weight side (FIG. 53(B)). […] In contrast, when a mixture reaction solution of hMMP-9(cat)_E402Q_His6 and the active MMP-9-binding peptide M91005 or M91011 was analyzed, the retention time of the peak of the hMMP-9(cat)_E402Q_His6 was not changed (FIG. 53(B)). It should be noted that when only hTIMP-1 or the active MMP-9-binding peptides M91005, M91011 was analyzed, the peak of hTIMP-1 was detected at a retention time of 7.3 minutes, the peak of the active MMP-9-binding peptide M91005 was detected at a retention time of 8.2 minutes, and the peak of the active MMP-9-binding peptide M91011 was detected at a retention time of 8.1 minutes (FIG. 53(C)).

The target in a further assay is T1, active hMMP-9(cat)_Y420A (Homo sapiens, UniProt P14780, Y420A).
T1 construct: of the enzyme active domain (Phe107-Pro449) were constructed; His tag (before the propeptide) (N, cleaved yes); made in house; host or cells: FreeStyle 293F
Kind of assay: Inhibition of human MMP-9 mutant Y420A. It is filed as biochemical. The protocol: (§4) The substrate peptide MOCAc-KPLGL-A2pr(Dnp)-AR-NH2 (SEQ ID NO: 30 (FIG. 46)) (PEPTIDE […], INC.; 3226-v) was dissolved in water to 1 mM, then diluted with an assay buffer (50 mM Tris-HCl, 200 mM NaCl, 2 mM CaCl2, pH7.5) and used at the final concentration of 10 μM. 50 μl each of the active hMMP-9(cat) diluted with the assay buffer or the active hMMP-9(cat)_XnnnY and the active MMP-9-binding peptide or sc-311438 (Santa Cruz Biotechnology, Inc.) were mixed, and reacted at 37° C. for 1 hour. Then, 100 μl of the substrate diluted with the assay buffer was added, and fluorescence signals (excitation 328 nm/emission 393 nm) were measured with Enspire (PerkinElmer, Inc.). The final concentrations of the active hMMP-9(cat) and the active hMMP-9(cat)_XnnnY were at 1 nM, and the final concentrations of the active MMP-9-binding peptide and sc-311438 were at 0.5 to 330 nM. For reactions and measurements, a ProteoSave™ SS96F black plate (Sumitomo Bakelite Co., Ltd.) was used.
(§5) The 50% inhibitory concentration (IC50) of each binding peptide was calculated using GraphPad Prism (version 5.0; GraphPad Software), by calculating the substrate peptide degradation rate of the active MMP-9-binding peptide at each concentration, and taking the degradation rate at an inhibitor concentration of 0 nM as 100% (FIGS. 54(A) and 54(B)). […]

The target in a further assay is T2, active hMMP-9(cat)_L397A (Homo sapiens, UniProt P14780, L397A).
T2 construct: of the enzyme active domain (Phe107-Pro449) were constructed; His tag (before the propeptide) (N, cleaved yes); made in house; host or cells: FreeStyle 293F
Kind of assay: Inhibition of human MMP-9 mutant L397A. The format is biochemical. On the procedure:
as §4, §5

The target of a further assay is T3, active hMMP-9(cat)_Y393A (Homo sapiens, UniProt P14780, Y393A).
T3 construct: of the enzyme active domain (Phe107-Pro449) were constructed; His tag (before the propeptide) (N, cleaved yes); made in house; host or cells: FreeStyle 293F
Nature of the assay: Inhibition of human MMP-9 mutant Y393A. The format is biochemical. On the procedure: as §4, §5

The next assay concerns the target T4, active hMMP-9(cat)_Y179A (Homo sapiens, UniProt P14780, Y179A).
T4 construct: of the enzyme active domain (Phe107-Pro449) were constructed; His tag (before the propeptide) (N, cleaved yes); made in house; host or cells: FreeStyle 293F
Nature of the assay: Inhibition of human MMP-9 mutant Y179A. The format is biochemical. The protocol: as §4, §5

For another assay, the target named is T5, active hMMP-9(cat)_F110A (Homo sapiens, UniProt P14780, F110A).
T5 construct: of the enzyme active domain (Phe107-Pro449) were constructed; His tag (before the propeptide) (N, cleaved yes); made in house; host or cells: FreeStyle 293F
Nature of the assay: Inhibition of human MMP-9 mutant F110A. It is filed as biochemical. The protocol:
as §4, §5

The target in a further assay is T6, active hMMP-9(cat)_F192A (Homo sapiens, UniProt P14780, F192A).
T6 construct: of the enzyme active domain (Phe107-Pro449) were constructed; His tag (before the propeptide) (N, cleaved yes); made in house; host or cells: FreeStyle 293F
Kind of assay: Inhibition of human MMP-9 mutant F192A. The format is biochemical. On the procedure: as §4, §5

Assay [2] deals with T7, human MMP-9 enzyme active domain E402Q mutant (Homo sapiens, UniProt P14780, E402Q).
T7 construct: an enzyme active domain E402Q mutant (Phe107-Pro449, E402Q) and a His tag; made in house; host or cells: FreeStyle 293F
Nature of the assay: Size exclusion chromatography binding to hMMP-9(cat)_E402Q_His6. The settings on record: 25 μM enzyme, 75 μM inhibitor. The protocol:
as §1, §2, §3

The target of assay [3] is T8, wild-type active hMMP-9(cat) (Homo sapiens, UniProt P14780).
T8 construct: and an enzyme active domain (Phe107-Pro449) was constructed; His tag (before the propeptide) (N, cleaved yes); made in house; host or cells: FreeStyle 293F
Nature of the assay: Inhibition of wild-type active hMMP-9(cat), substrate peptide. The format is biochemical. The settings on record: wild-type active hMMP-9(cat) 1 nM, substrate peptide 10 μM. On the procedure:
as §4, §5

In a further assay the target is T9, active hMMP-9(cat)_V398A (Homo sapiens, UniProt P14780, V398A).
T9 construct: of the enzyme active domain (Phe107-Pro449) were constructed; His tag (before the propeptide) (N, cleaved yes); made in house; host or cells: FreeStyle 293F
Kind of assay: Inhibition of human MMP-9 mutant V398A. It is filed as biochemical. The protocol:
as §4, §5

A further assay addresses T10, active hMMP-9(cat)_Y423A (Homo sapiens, UniProt P14780, Y423A).
T10 construct: of the enzyme active domain (Phe107-Pro449) were constructed; His tag (ahead of the propeptide in the precursor) (N, cleaved yes); made in house; host or cells: FreeStyle 293F
Kind of assay: Inhibition of human MMP-9 mutant Y423A. The format is biochemical. On the procedure: as §4, §5

In a further assay the target is T11, active hMMP-9(cat)_Q199G (Homo sapiens, UniProt P14780, Q199G).
T11 construct: of the enzyme active domain (Phe107-Pro449) were constructed; His tag (before the propeptide) (N, cleaved yes); made in house; host or cells: FreeStyle 293F
Nature of the assay: Inhibition of human MMP-9 mutant Q199G. It is filed as biochemical. The protocol:
as §4, §5

The target in the next assay is T12, active hMMP-9(cat)_L187A (Homo sapiens, UniProt P14780, L187A).
T12 construct: of the enzyme active domain (Phe107-Pro449) were constructed; His tag (before the propeptide) (N, cleaved yes); made in house; host or cells: FreeStyle 293F
Nature of the assay: Inhibition of human MMP-9 mutant L187A. It is filed as biochemical. On the procedure: as §4, §5

The next assay has as its target T13, active hMMP-9(cat)_M422I (Homo sapiens, UniProt P14780, M422I).
T13 construct: of the enzyme active domain (Phe107-Pro449) were constructed; His tag (before the propeptide) (N, cleaved yes); made in house; host or cells: FreeStyle 293F
Nature of the assay: Inhibition of human MMP-9 mutant M422I. The format is biochemical. On the procedure:
as §4, §5

A further assay has as its target T14, active hMMP-9(cat)_P193A (Homo sapiens, UniProt P14780, P193A).
T14 construct: of the enzyme active domain (Phe107-Pro449) were constructed; His tag (before the propeptide) (N, cleaved yes); made in house; host or cells: FreeStyle 293F
Nature of the assay: Inhibition of human MMP-9 mutant P193A. The format is biochemical. The protocol:
as §4, §5

Another assay deals with T15, active hMMP-9(cat)_R424T (Homo sapiens, UniProt P14780, R424T).
T15 construct: of the enzyme active domain (Phe107-Pro449) were constructed; His tag (ahead of the propeptide in the precursor) (N, cleaved yes); made in house; host or cells: FreeStyle 293F
Nature of the assay: Inhibition of human MMP-9 mutant R424T. The format is biochemical. On the procedure: as §4, §5

The next assay addresses T16, active hMMP-9(cat)_D185A (Homo sapiens, UniProt P14780, D185A).
T16 construct: of the enzyme active domain (Phe107-Pro449) were constructed; His tag (before the propeptide) (N, cleaved yes); made in house; host or cells: FreeStyle 293F
Nature of the assay: Inhibition of human MMP-9 mutant D185A. It is filed as biochemical. On the procedure:
as §4, §5

T9 sequence (P14780 107-449 V398A): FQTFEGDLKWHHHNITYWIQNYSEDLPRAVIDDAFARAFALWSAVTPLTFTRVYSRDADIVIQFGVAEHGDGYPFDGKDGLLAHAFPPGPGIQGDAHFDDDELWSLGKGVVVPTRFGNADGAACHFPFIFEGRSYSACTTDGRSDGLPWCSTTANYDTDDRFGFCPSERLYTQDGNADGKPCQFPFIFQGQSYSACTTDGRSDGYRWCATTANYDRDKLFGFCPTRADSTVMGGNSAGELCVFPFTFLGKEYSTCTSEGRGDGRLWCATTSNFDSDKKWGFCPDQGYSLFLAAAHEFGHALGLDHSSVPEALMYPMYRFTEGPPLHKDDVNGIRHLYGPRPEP
T8 sequence (P14780 107-449): as the sequence (P14780 107-449 V398A) above, with A292V counted along it
active human MMP-9 enzyme active domain, sequence (P14780 107-449): as the sequence (P14780 107-449 V398A) above, with A292V counted along it
T6 sequence (P14780 107-449 F192A): as the sequence (P14780 107-449 V398A) above, with F86A, A292V counted along it
T7 sequence (P14780 107-449 E402Q): as the sequence (P14780 107-449 V398A) above, with A292V, E296Q counted along it
T4 sequence (P14780 107-449 Y179A): as the sequence (P14780 107-449 V398A) above, with Y73A, A292V counted along it
T13 sequence (P14780 107-449 M422I): as the sequence (P14780 107-449 V398A) above, with A292V, M316I counted along it
T3 sequence (P14780 107-449 Y393A): as the sequence (P14780 107-449 V398A) above, with Y287A, A292V counted along it
T10 sequence (P14780 107-449 Y423A): as the sequence (P14780 107-449 V398A) above, with A292V, Y317A counted along it
T2 sequence (P14780 107-449 L397A): as the sequence (P14780 107-449 V398A) above, with L291A, A292V counted along it
T16 sequence (P14780 107-449 D185A): as the sequence (P14780 107-449 V398A) above, with D79A, A292V counted along it
T11 sequence (P14780 107-449 Q199G): as the sequence (P14780 107-449 V398A) above, with Q93G, A292V counted along it
T12 sequence (P14780 107-449 L187A): as the sequence (P14780 107-449 V398A) above, with L81A, A292V counted along it
T5 sequence (P14780 107-449 F110A): as the sequence (P14780 107-449 V398A) above, with F4A, A292V counted along it
T1 sequence (P14780 107-449 Y420A): as the sequence (P14780 107-449 V398A) above, with A292V, Y314A counted along it
T15 sequence (P14780 107-449 R424T): as the sequence (P14780 107-449 V398A) above, with A292V, R318T counted along it
T14 sequence (P14780 107-449 P193A): as the sequence (P14780 107-449 V398A) above, with P87A, A292V counted along it

B1: M91005: SPINK2 mutant active MMP-9-binding peptide, SEQ ID NO: 5 (FIG. 19) (protein)
chain: DPQFGLFSKYRTPNCRKRGGPSCQMSYNPVCGSDMSTYANECTLCMKIREGGHNIKIIRNGPC
modifications: binder
As for B1, the “binding to active human MMP-9 enzyme active domain (peak shift)” value in assay [1] is on record as “bind to the active human MMP-9 enzyme active domain”. The “IC50 increase compared to wild type” value is 3.1 times with active hMMP-9(cat)_Y420A; 2.2 times with active hMMP-9(cat)_L397A; 2.7 times with active hMMP-9(cat)_Y393A; 3.2 times with active hMMP-9(cat)_Y179A; 4.0 times with active hMMP-9(cat)_F110A; over 57.8 times in the assay with active hMMP-9(cat)_F192A. The “IC50 increase compared to wild type” value in the assay with active hMMP-9(cat)_V398A was found to be 2.2 times; with active hMMP-9(cat)_Y423A, 13.2 times; with active hMMP-9(cat)_Q199G it was 2.3 times; with active hMMP-9(cat)_L187A, 6.7 times; in the assay with active hMMP-9(cat)_M422I, 2.6 times. Also, the “binding to human MMP-9 enzyme active domain E402Q mutant (peak shift)” value in assay [2] is on record as “do not bind to human MMP-9 enzyme active domain E402Q mutant”. This molecule also showed an IC50 in assay [3] of 17 ± 7 nM.

B2: M91011: SPINK2 mutant active MMP-9-binding peptide, SEQ ID NO: 7 (FIG. 21) (protein)
chain: DPQFGLFSKYRTPNCMMYKYAQCSHKSQPVCGSDMSTYANECTLCMKIREGGHNIKIIRNGPC
modifications: binder
With B2, in assay [1], the “binding to active human MMP-9 enzyme active domain (peak shift)” value was “bind to the active human MMP-9 enzyme active domain”. The “IC50 increase compared to wild type” value is 3.5 times in the assay with active hMMP-9(cat)_L397A; over 57.6 times with active hMMP-9(cat)_Y393A; 6.5 times with active hMMP-9(cat)_P193A; 2.7 times in the assay with active hMMP-9(cat)_R424T; 4.9 times in the assay with active hMMP-9(cat)_Y179A; 19.0 times with active hMMP-9(cat)_D185A. The “IC50 increase compared to wild type” value is 5.0 times with active hMMP-9(cat)_F192A, 4.8 times in the assay with active hMMP-9(cat)_V398A, over 20.0 times with active hMMP-9(cat)_Y423A and 2.6 times in the assay with active hMMP-9(cat)_M422I. Further, the “binding to human MMP-9 enzyme active domain E402Q mutant (peak shift)” value in assay [2] is “do not bind to human MMP-9 enzyme active domain E402Q mutant”. This molecule returned an IC50 in assay [3] of 17 ± 5 nM.

Values taken from US12043658B2, “Conjugate comprising an active MMP-9-binding peptide” (Daiichi Sankyo Company, Limited, priority 2017, dated 2024).
